The numbers were not newly measured in paper PMC8384639, which cites them from elsewhere.

This data set concerns the target Histone H3 K4me3 peptide 1-15 (Homo sapiens) (UniProt P68431).

As for BPTF PHD (from UniProt Q12830), the Kd – broadly, the concentration at which binding is half-saturated – was 2700 nM.
